We go through 2 molecules from article doi:10.1101/2022.03.18.484894, “Molecular determinants of the Bacillus subtilis chromosome origin basal unwinding system”.

Series [1] deals with DnaA R264A (Bacillus subtilis, UniProt P05648 1-446, R264A). The series can be described thus: EMSA; smaller complex that enters the gel; EMSA: 13 nM scaffold, 250-1000 nM DnaA, 10 mM HEPES-KOH pH 8, 100 mM K-glutamate, 1 mM Mg acetate, 30% glycerol, 10% DMSO, 1 mM ADP or ATP, 20 C, 3 h; 6% PAGE with 5 mM MgCl2. The conditions noted are these: protein: recombinant; tags: none after cleavage of His14-SUMO; label: 5'-Cy3 on strand 1 (oHM752); 5'-Cy5 on strand 2 (oHM590); three-strand duplex: strands 1 and 2 adjacent (nick) on 41-nt strand 3, blunt.

Series [2] addresses T1, DnaA (Bacillus subtilis, UniProt P05648 1-446). The series can be described thus: EMSA; ATP; large complex near the well plus strand separation; EMSA: 13 nM scaffold, 250-1000 nM DnaA, 10 mM HEPES-KOH pH 8, 100 mM K-glutamate, 1 mM Mg acetate, 30% glycerol, 10% DMSO, 1 mM ADP or ATP, 20 C, 3 h; 6% PAGE with 5 mM MgCl2. The conditions noted are these: protein: recombinant; tags: none after cleavage of His14-SUMO; label: 5'-Cy3 on strand 1 (oHM752); 5'-Cy5 on strand 2 (oHM590); three-strand duplex: strands 1 and 2 adjacent (nick) on 41-nt strand 3, blunt.

Series [3] deals with T1, DnaA. The series can be described thus: EMSA; ATP; large complexes enter the gel poorly; EMSA: 13 nM scaffold, 250-1000 nM DnaA, 10 mM HEPES-KOH pH 8, 100 mM K-glutamate, 1 mM Mg acetate, 30% glycerol, 10% DMSO, 1 mM ADP or ATP, 20 C, 3 h; 6% PAGE with 5 mM MgCl2. As to conditions: protein: recombinant; tags: none after cleavage of His14-SUMO; label: Cy3 on annealed strand; Cy5 on separated strand; three-strand scaffold.

B1: B. subtilis WT BUS scaffold (EMSA substrate) (dsDNA)
DNA 1: ACTTATCCACAAATCCACAGGCCC
DNA 2: TACTATTACTTCTACTA
DNA 3: TAGTAGAAGTAATAGTAGGGCCTGTGGATTTGTGGATAAGT
Take B1: the binding result in series [1] and in series [2] was “binds” throughout.

B2: BUS scaffold with phosphorothioate backbone (EMSA) (XNA)
DNA 1: ACTTATCCACAAATCCACAGGCC
DNA 2: CTACTATTACTTCTACTA
DNA 3: B1 DNA 3
modifications: phosphorothioate linkages in the DnaA-trio region; exact positions of the EMSA version not stated
B2: the binding result in series [3] is recorded as “binds”.
